This is an account of results in patent US20140087995A1 (published 2014).

Test [1] addresses T1, human calcitonin receptor (human, UniProt P30988 25-474).
T1 construct: whole, on cells; Assay used cell membranes of the transfected BHK cells; also called hCTR; hCT
T1 sequence (looked up): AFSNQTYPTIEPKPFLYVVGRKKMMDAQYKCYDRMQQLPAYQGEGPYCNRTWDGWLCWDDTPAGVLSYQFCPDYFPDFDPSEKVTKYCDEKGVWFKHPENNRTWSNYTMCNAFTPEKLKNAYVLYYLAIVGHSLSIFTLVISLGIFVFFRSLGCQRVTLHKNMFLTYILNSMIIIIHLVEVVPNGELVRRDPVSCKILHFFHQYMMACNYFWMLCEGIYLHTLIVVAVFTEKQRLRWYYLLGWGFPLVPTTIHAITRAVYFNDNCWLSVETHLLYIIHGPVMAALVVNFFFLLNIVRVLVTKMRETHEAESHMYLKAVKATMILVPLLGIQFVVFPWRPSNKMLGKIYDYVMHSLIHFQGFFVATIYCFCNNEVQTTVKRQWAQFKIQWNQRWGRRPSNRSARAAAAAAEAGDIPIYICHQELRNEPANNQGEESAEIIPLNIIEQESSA
Put plainly: SPA radioligand competition (125I-calcitonin), membranes of BHK cells with human calcitonin receptor. The essentials: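 BHK hCTR membranes 35 ng/μL + SPA beads 0.05 mg/well; buffer 50 mM Hepes pH 7.4, 1 mM CaCl2, 5 mM MgCl₂, 0.1% OA, 0.02% Tween20. 120 min, 25° C., shaking. Scintillation count; IC50 by one-site binding competition.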
For orientation: Displacement assays read how much labelled ligand stays bound in the presence of the test substance.

The target of test [2] is T1, human calcitonin receptor. Put plainly: ratio IC50 hCTR / IC50 hAmylin-R of the two SPA competition assays; reference: human amylin receptor. The gist of the method: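 Membranes (35 ng/μL final) + SPA beads, 50 mM Hepes pH 7.4 buffer with 1 mM CaCl2, 5 mM MgCl₂, 0.1% OA, 0.02% Tween20; 120 min, 25° C, shaking; centrifuged, counted; IC₅₀ by one-site binding competition.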

Numbered stars: 1 amine (or outer) side, 2 acyl side, 3 side chain; on linkers, the order of the positions; unused ones are H or OH. Bridge positions count the residues as written; N and C are the ends. Side chains are listed from the residue outwards. Ends that are not written are not given here. * marks the point of attachment. C20 diacid = O=C(O)CCCCCCCCCCCCCCCCCCC(=O)*; γGlu = O=C(O)[C@H](CCC(=O)[*:2])N[*:1]; AEEA = NCCOCCOCC(=O)O

B1: N^ε1-[(4S)-4-carboxy-4-(19-carboxynonadecanoylamino)butanoyl]-[Arg17,Pro21,Pro27]-h-amylin (peptide)
peptide: K([γGlu-C20 diacid])CNTATCATQRLANFLRHSSPNFGAIPSSTNVGSNTY-NH2
modifications: disulfide 2-7; N-terminus assumed
SMILES: CC[C@H](C)[C@H](NC(=O)[C@H](C)NC(=O)CNC(=O)[C@H](Cc1ccccc1)NC(=O)[C@H](CC(N)=O)NC(=O)[C@@H]1CCCN1C(=O)[C@H](CO)NC(=O)[C@H](CO)NC(=O)[C@H](Cc1c[nH]cn1)NC(=O)[C@H](CCCNC(=N)N)NC(=O)[C@H](CC(C)C)NC(=O)[C@H](Cc1ccccc1)NC(=O)[C@H](CC(N)=O)NC(=O)[C@H](C)NC(=O)[C@H](CC(C)C)NC(=O)[C@H](CCCNC(=N)N)NC(=O)[C@H](CCC(N)=O)NC(=O)[C@@H](NC(=O)[C@H](C)NC(=O)[C@@H]1CSSC[C@H](NC(=O)[C@@H](N)CCCCNC(=O)CC[C@H](NC(=O)CCCCCCCCCCCCCCCCCCC(=O)O)C(=O)O)C(=O)N[C@@H](CC(N)=O)C(=O)N[C@@H]([C@@H](C)O)C(=O)N[C@@H](C)C(=O)N[C@@H]([C@@H](C)O)C(=O)N1)[C@@H](C)O)C(=O)N1CCC[C@H]1C(=O)N[C@@H](CO)C(=O)N[C@@H](CO)C(=O)N[C@H](C(=O)N[C@@H](CC(N)=O)C(=O)N[C@H](C(=O)NCC(=O)N[C@@H](CO)C(=O)N[C@@H](CC(N)=O)C(=O)N[C@H](C(=O)N[C@@H](Cc1ccc(O)cc1)C(N)=O)[C@@H](C)O)C(C)C)[C@@H](C)O
notes: Synthetic analogue; also called compound 48
One may read the IC50 as the concentration at which inhibition is half-maximal. Turning to B1, the IC50 in test [1] was 30.9 nM. Further, the “Ratio hCT/hAmylin binding” value in test [2] amounted to 69.7.

B2: N^ε1-[2-[2-[2-(19-carboxynonadecanoylamino)ethoxy]ethoxy]acetyl]-[Arg17,Pro21,Pro27]-h-amylin (peptide)
peptide: K([AEEA-C20 diacid])CNTATCATQRLANFLRHSSPNFGAIPSSTNVGSNTY-NH2
modifications: disulfide 2-7; N-terminus assumed
SMILES: CC[C@H](C)[C@H](NC(=O)[C@H](C)NC(=O)CNC(=O)[C@H](Cc1ccccc1)NC(=O)[C@H](CC(N)=O)NC(=O)[C@@H]1CCCN1C(=O)[C@H](CO)NC(=O)[C@H](CO)NC(=O)[C@H](Cc1c[nH]cn1)NC(=O)[C@H](CCCNC(=N)N)NC(=O)[C@H](CC(C)C)NC(=O)[C@H](Cc1ccccc1)NC(=O)[C@H](CC(N)=O)NC(=O)[C@H](C)NC(=O)[C@H](CC(C)C)NC(=O)[C@H](CCCNC(=N)N)NC(=O)[C@H](CCC(N)=O)NC(=O)[C@@H](NC(=O)[C@H](C)NC(=O)[C@@H]1CSSC[C@H](NC(=O)[C@@H](N)CCCCNC(=O)COCCOCCNC(=O)CCCCCCCCCCCCCCCCCCC(=O)O)C(=O)N[C@@H](CC(N)=O)C(=O)N[C@@H]([C@@H](C)O)C(=O)N[C@@H](C)C(=O)N[C@@H]([C@@H](C)O)C(=O)N1)[C@@H](C)O)C(=O)N1CCC[C@H]1C(=O)N[C@@H](CO)C(=O)N[C@@H](CO)C(=O)N[C@H](C(=O)N[C@@H](CC(N)=O)C(=O)N[C@H](C(=O)NCC(=O)N[C@@H](CO)C(=O)N[C@@H](CC(N)=O)C(=O)N[C@H](C(=O)N[C@@H](Cc1ccc(O)cc1)C(N)=O)[C@@H](C)O)C(C)C)[C@@H](C)O
notes: Synthetic analogue; also called compound 43
With B2, in test [1], the IC50 was found to be 2.64 nM. Further, the “Ratio hCT/hAmylin binding” value in test [2] is 34.7.

B3: N^ε-[2-[2-[2-[[(4S)-4-carboxy-4-(19-carboxynonadecanoylamino)butanoyl]amino]ethoxy]ethoxy]acetyl]Lys[Arg1,Arg17,Pro21,Pro27,His35]-h-amylin (peptide)
peptide: K([AEEA-γGlu-C20 diacid])RCNTATCATQRLANFLRHSSPNFGAIPSSTNVGSHTY-NH2
modifications: disulfide 3-8; N-terminus assumed
SMILES: CC[C@H](C)[C@H](NC(=O)[C@H](C)NC(=O)CNC(=O)[C@H](Cc1ccccc1)NC(=O)[C@H](CC(N)=O)NC(=O)[C@@H]1CCCN1C(=O)[C@H](CO)NC(=O)[C@H](CO)NC(=O)[C@H](Cc1c[nH]cn1)NC(=O)[C@H](CCCNC(=N)N)NC(=O)[C@H](CC(C)C)NC(=O)[C@H](Cc1ccccc1)NC(=O)[C@H](CC(N)=O)NC(=O)[C@H](C)NC(=O)[C@H](CC(C)C)NC(=O)[C@H](CCCNC(=N)N)NC(=O)[C@H](CCC(N)=O)NC(=O)[C@@H](NC(=O)[C@H](C)NC(=O)[C@@H]1CSSC[C@H](NC(=O)[C@H](CCCNC(=N)N)NC(=O)[C@@H](N)CCCCNC(=O)COCCOCCNC(=O)CC[C@H](NC(=O)CCCCCCCCCCCCCCCCCCC(=O)O)C(=O)O)C(=O)N[C@@H](CC(N)=O)C(=O)N[C@@H]([C@@H](C)O)C(=O)N[C@@H](C)C(=O)N[C@@H]([C@@H](C)O)C(=O)N1)[C@@H](C)O)C(=O)N1CCC[C@H]1C(=O)N[C@@H](CO)C(=O)N[C@@H](CO)C(=O)N[C@H](C(=O)N[C@@H](CC(N)=O)C(=O)N[C@H](C(=O)NCC(=O)N[C@@H](CO)C(=O)N[C@@H](Cc1c[nH]cn1)C(=O)N[C@H](C(=O)N[C@@H](Cc1ccc(O)cc1)C(N)=O)[C@@H](C)O)C(C)C)[C@@H](C)O
notes: Synthetic analogue, extended by Lys at the N-terminus; also called compound 45
For B3, the IC50 in test [1] was 14.8 nM. In test [2], the “Ratio hCT/hAmylin binding” value worked out at 26.8.

B4: N^ε-[(4S)-4-carboxy-4-(19-carboxynonadecanoylamino)butanoyl]Lys[Arg1,Arg17,Pro21,Pro27,His35]-h-amylin (peptide)
peptide: K([γGlu-C20 diacid])RCNTATCATQRLANFLRHSSPNFGAIPSSTNVGSHTY-NH2
modifications: disulfide 3-8; N-terminus assumed
SMILES: CC[C@H](C)[C@H](NC(=O)[C@H](C)NC(=O)CNC(=O)[C@H](Cc1ccccc1)NC(=O)[C@H](CC(N)=O)NC(=O)[C@@H]1CCCN1C(=O)[C@H](CO)NC(=O)[C@H](CO)NC(=O)[C@H](Cc1c[nH]cn1)NC(=O)[C@H](CCCNC(=N)N)NC(=O)[C@H](CC(C)C)NC(=O)[C@H](Cc1ccccc1)NC(=O)[C@H](CC(N)=O)NC(=O)[C@H](C)NC(=O)[C@H](CC(C)C)NC(=O)[C@H](CCCNC(=N)N)NC(=O)[C@H](CCC(N)=O)NC(=O)[C@@H](NC(=O)[C@H](C)NC(=O)[C@@H]1CSSC[C@H](NC(=O)[C@H](CCCNC(=N)N)NC(=O)[C@@H](N)CCCCNC(=O)CC[C@H](NC(=O)CCCCCCCCCCCCCCCCCCC(=O)O)C(=O)O)C(=O)N[C@@H](CC(N)=O)C(=O)N[C@@H]([C@@H](C)O)C(=O)N[C@@H](C)C(=O)N[C@@H]([C@@H](C)O)C(=O)N1)[C@@H](C)O)C(=O)N1CCC[C@H]1C(=O)N[C@@H](CO)C(=O)N[C@@H](CO)C(=O)N[C@H](C(=O)N[C@@H](CC(N)=O)C(=O)N[C@H](C(=O)NCC(=O)N[C@@H](CO)C(=O)N[C@@H](Cc1c[nH]cn1)C(=O)N[C@H](C(=O)N[C@@H](Cc1ccc(O)cc1)C(N)=O)[C@@H](C)O)C(C)C)[C@@H](C)O
notes: Synthetic analogue, extended by Lys at the N-terminus; also called compound 44
In the case of B4, the IC50 in test [1] was found to be 4.87 nM. Moreover, the “Ratio hCT/hAmylin binding” value in test [2] was 17.7.

B5: N^-1-[(4S)-4-carboxy-4-(19-carboxynonadecanoylamino)butanoyl]-Gly[Arg1,Arg17,Pro21,Pro27]-h-amylin (peptide)
peptide: {C20 diacid-γGlu}-GRCNTATCATQRLANFLRHSSPNFGAIPSSTNVGSNTY-NH2
modifications: disulfide 3-8
SMILES: CC[C@H](C)[C@H](NC(=O)[C@H](C)NC(=O)CNC(=O)[C@H](Cc1ccccc1)NC(=O)[C@H](CC(N)=O)NC(=O)[C@@H]1CCCN1C(=O)[C@H](CO)NC(=O)[C@H](CO)NC(=O)[C@H](Cc1c[nH]cn1)NC(=O)[C@H](CCCNC(=N)N)NC(=O)[C@H](CC(C)C)NC(=O)[C@H](Cc1ccccc1)NC(=O)[C@H](CC(N)=O)NC(=O)[C@H](C)NC(=O)[C@H](CC(C)C)NC(=O)[C@H](CCCNC(=N)N)NC(=O)[C@H](CCC(N)=O)NC(=O)[C@@H](NC(=O)[C@H](C)NC(=O)[C@@H]1CSSC[C@H](NC(=O)[C@H](CCCNC(=N)N)NC(=O)CNC(=O)CC[C@H](NC(=O)CCCCCCCCCCCCCCCCCCC(=O)O)C(=O)O)C(=O)N[C@@H](CC(N)=O)C(=O)N[C@@H]([C@@H](C)O)C(=O)N[C@@H](C)C(=O)N[C@@H]([C@@H](C)O)C(=O)N1)[C@@H](C)O)C(=O)N1CCC[C@H]1C(=O)N[C@@H](CO)C(=O)N[C@@H](CO)C(=O)N[C@H](C(=O)N[C@@H](CC(N)=O)C(=O)N[C@H](C(=O)NCC(=O)N[C@@H](CO)C(=O)N[C@@H](CC(N)=O)C(=O)N[C@H](C(=O)N[C@@H](Cc1ccc(O)cc1)C(N)=O)[C@@H](C)O)C(C)C)[C@@H](C)O
notes: Synthetic analogue, extended by Gly at the N-terminus; also called compound 46
With B5, the IC50 in test [1] came out at 9.53 nM. Besides, the “Ratio hCT/hAmylin binding” value in test [2] worked out at 48.9.

B6: N^-1-[(4S)-4-carboxy-4-(19-carboxynonadecanoylamino)butanoyl]-Gly[Arg1,Arg17,Pro21,Pro27,His35]-h-amylin (peptide)
peptide: {C20 diacid-γGlu}-GRCNTATCATQRLANFLRHSSPNFGAIPSSTNVGSHTY-NH2
modifications: disulfide 3-8
SMILES: CC[C@H](C)[C@H](NC(=O)[C@H](C)NC(=O)CNC(=O)[C@H](Cc1ccccc1)NC(=O)[C@H](CC(N)=O)NC(=O)[C@@H]1CCCN1C(=O)[C@H](CO)NC(=O)[C@H](CO)NC(=O)[C@H](Cc1c[nH]cn1)NC(=O)[C@H](CCCNC(=N)N)NC(=O)[C@H](CC(C)C)NC(=O)[C@H](Cc1ccccc1)NC(=O)[C@H](CC(N)=O)NC(=O)[C@H](C)NC(=O)[C@H](CC(C)C)NC(=O)[C@H](CCCNC(=N)N)NC(=O)[C@H](CCC(N)=O)NC(=O)[C@@H](NC(=O)[C@H](C)NC(=O)[C@@H]1CSSC[C@H](NC(=O)[C@H](CCCNC(=N)N)NC(=O)CNC(=O)CC[C@H](NC(=O)CCCCCCCCCCCCCCCCCCC(=O)O)C(=O)O)C(=O)N[C@@H](CC(N)=O)C(=O)N[C@@H]([C@@H](C)O)C(=O)N[C@@H](C)C(=O)N[C@@H]([C@@H](C)O)C(=O)N1)[C@@H](C)O)C(=O)N1CCC[C@H]1C(=O)N[C@@H](CO)C(=O)N[C@@H](CO)C(=O)N[C@H](C(=O)N[C@@H](CC(N)=O)C(=O)N[C@H](C(=O)NCC(=O)N[C@@H](CO)C(=O)N[C@@H](Cc1c[nH]cn1)C(=O)N[C@H](C(=O)N[C@@H](Cc1ccc(O)cc1)C(N)=O)[C@@H](C)O)C(C)C)[C@@H](C)O
notes: Synthetic analogue, extended by Gly at the N-terminus; also called compound 47
Turning to B6, the IC50 in test [1] was 15.5 nM. The “Ratio hCT/hAmylin binding” value in test [2] was determined as 44.9.
